Experimental data from patent EP4289863A9 (Shanghai Huaota Biopharmaceutical Co., Ltd., dated 2024).

How the values were obtained:
[1] = biological target: T1, human IL-36R (human, UniProt Q9HB29 20-575); assay: cell-based or functional assay
T1 sequence (looked up): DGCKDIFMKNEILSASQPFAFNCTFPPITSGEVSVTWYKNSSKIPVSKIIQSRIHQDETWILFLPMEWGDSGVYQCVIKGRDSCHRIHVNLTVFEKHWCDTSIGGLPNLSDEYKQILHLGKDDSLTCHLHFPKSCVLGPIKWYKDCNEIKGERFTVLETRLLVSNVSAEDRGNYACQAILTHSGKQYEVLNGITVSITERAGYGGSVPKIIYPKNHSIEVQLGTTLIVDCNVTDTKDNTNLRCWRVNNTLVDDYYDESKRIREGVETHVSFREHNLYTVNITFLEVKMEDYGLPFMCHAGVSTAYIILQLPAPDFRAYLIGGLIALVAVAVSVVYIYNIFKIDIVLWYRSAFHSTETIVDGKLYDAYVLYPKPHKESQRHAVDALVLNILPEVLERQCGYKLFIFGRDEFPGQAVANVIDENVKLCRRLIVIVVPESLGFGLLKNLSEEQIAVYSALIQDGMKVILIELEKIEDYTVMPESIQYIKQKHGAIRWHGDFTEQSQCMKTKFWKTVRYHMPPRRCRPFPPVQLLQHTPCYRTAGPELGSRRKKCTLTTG

[2] = biological target: T1, human IL-36R; assay: cell-based or functional assay; remark: listed apart in the source
[3] = biological target: T1, human IL-36R; assay: cell-based or functional assay; remark: listed apart in the source
[4] = biological target: T1, human IL-36R; assay: cell-based or functional assay; remark: listed apart in the source
[5] = biological target: T1, human IL-36R; assay: cell-based or functional assay; remark: listed apart in the source
[6] = biological target: T1, human IL-36R; assay: cell-based or functional assay; remark: listed apart in the source
[7] = biological target: T1, human IL-36R; assay: flow cytometry on CHO-K1-huIL-36R-5E10/2F10 cells
[8] = biological target: T1, human IL-36R; assay: flow cytometry on CHO-K1 cells expressing human IL-36R
[9] = biological target: T2, monkey IL-36R (monkey); assay: flow cytometry on CHO-K1 cells expressing monkey IL-36R
T2 construct: whole, on cells

[10] = biological target: T3, IL36R (analyte of Table 17) (Homo sapiens (Human), UniProt Q9HB29 20-335); assay: SPR Biacore 8K, antibody captured on anti-human chip, antigen as analyte, 1:1 model
T3 sequence: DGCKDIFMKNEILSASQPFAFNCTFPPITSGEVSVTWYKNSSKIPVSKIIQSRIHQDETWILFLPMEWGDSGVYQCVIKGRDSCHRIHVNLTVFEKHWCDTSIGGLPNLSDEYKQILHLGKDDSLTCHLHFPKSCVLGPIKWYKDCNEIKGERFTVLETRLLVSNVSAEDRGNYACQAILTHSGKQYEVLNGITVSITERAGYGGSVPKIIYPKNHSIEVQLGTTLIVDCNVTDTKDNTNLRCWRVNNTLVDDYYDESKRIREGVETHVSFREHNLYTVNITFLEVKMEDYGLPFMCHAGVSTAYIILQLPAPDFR

[11] = biological target: T4, His-tagged human IL-1 Rrp2/IL-1R6 protein (human, UniProt Q9HB29 20-335, limits assumed); assay: SPR Biacore 8K, His-tagged antigen captured by anti-His antibody, antibody as analyte, 1:1 model
T4 construct: Bought protein; also called His-tagged human IL-1 Rrp2/IL-IR6 protein; not shown: His tag
T4 sequence (looked up): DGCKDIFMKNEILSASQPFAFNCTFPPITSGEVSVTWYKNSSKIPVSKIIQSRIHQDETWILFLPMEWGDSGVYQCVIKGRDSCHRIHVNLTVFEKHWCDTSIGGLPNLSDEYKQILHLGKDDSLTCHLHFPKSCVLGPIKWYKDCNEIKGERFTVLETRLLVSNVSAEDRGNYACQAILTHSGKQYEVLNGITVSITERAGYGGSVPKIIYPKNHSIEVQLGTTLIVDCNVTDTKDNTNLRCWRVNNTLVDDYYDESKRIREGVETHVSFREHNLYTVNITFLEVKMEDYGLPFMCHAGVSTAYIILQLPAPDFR

B1: humanized anti-IL-36R antibody 900527 (antibody, V domains shown)
VH: QVQLVQSGAEVKKPGASVKVSCKASGYTFTSSWMHWAKQAPGQGLEWIGEIHPNSAKTNYNQKFQGRVTMTRDTSISTAYMELSRLRSDDTAVYYCARVDYGKPWFAYWGQGTLVTVSS
VL: QIVLTQSPGTLSLSPGERATLSCRASSSVSSSYLHWYQQKPGQAPRLWIYSTSSRATGIPDRFSGSGSGTDFTLTISRLEPEDFATYYCQQFQSSPLTFGQGTKLEIK
notes: IgG1 (vector with L234A, L235A) and human kappa
**Q.** Which results are given for B1?
**A.** IC50 of GM-CSF release, NCI/ADR-RES cells stimulated with IL-36α [1]: 0.022 µg/mL; IC50 of GM-CSF release, NCI/ADR-RES cells stimulated with IL-36β [1]: 0.0174 µg/mL; IC50 of GM-CSF release, NCI/ADR-RES cells stimulated with IL-36γ [1]: 0.0198 µg/mL; IC50 of IL-6 release, NCI/ADR-RES cells stimulated with IL-36α [1]: 0.015 µg/mL; IC50 of IL-6 release, NCI/ADR-RES cells stimulated with IL-36β [1]: 0.0139 µg/mL; IC50 of IL-6 release, NCI/ADR-RES cells stimulated with IL-36γ [1]: 0.0162 µg/mL; IC50 of IL-8 release, NCI/ADR-RES cells stimulated with IL-36α [1]: 0.0315 µg/mL; IC50 of IL-8 release, NCI/ADR-RES cells stimulated with IL-36β [1]: 0.0223 µg/mL; IC50 of IL-8 release, NCI/ADR-RES cells stimulated with IL-36γ [1]: 0.0198 µg/mL; IC50 of pNF-κB, NCI/ADR-RES cells stimulated with IL-36β [1]: 71.4 ng/mL; HuIL-6 detected in NCI/ADR-RES under IL-36β stimulation IC50 [2]: 0.00887 µg/mL; HuIL-6 detected in HIF under IL-36α stimulation IC50 [3]: 0.0479 µg/mL; HuIL-6 detected in HIF under IL-36β stimulation IC50 [4]: 0.0546 µg/mL; pNFκB detected in HIF under IL-36β stimulation IC50 [5]: 0.105 µg/mL; EC50 of inhibition of IL-6 content, NCI/ADR-RES cells stimulated with IL-36β [6]: 0.069 nM; EC50 [7]: 0.32 nM; EC50 [8]: 0.062 µg/mL; EC50 [9]: 0.0595 µg/mL; Kd [10]: 0.141 nM; koff [10]: 0.00015 s⁻¹; kon [10]: 1.07e+06 M⁻¹ s⁻¹; Kd [11]: 0.0452 nM; koff [11]: 4.37e-05 s⁻¹; kon [11]: 967000 M⁻¹ s⁻¹

B2: humanized anti-IL-36R antibody 900513 (antibody, V domains shown)
VH: QVQLVQSGAEVKKPGASVKVSCKASGYTFTSSWMHWAKQAPGQGLEWIGEIHPNSAKTNYNQKFQGRVTMTRDTSISTAYMELSRLRSDDTAVYYCARVDYGKPWFAYWGQGTLVTVSS
VL: EIVLTQSPGTLSLSPGERATLSCSASSSVSSSYLHWYQQKPGQAPRLWIYSTSNRATGIPDRFSGSGSGTDFTLTISRLEPEDFATYYCQQFQSSPLTFGQGTKLEIK
notes: as for B1
**Q.** B2 was tested. Which “IC50 of GM-CSF release, NCI/ADR-RES cells stimulated with IL-36α” value [1] did it give?
**A.** 0.0206 µg/mL

**Q.** What about the “IC50 of GM-CSF release, NCI/ADR-RES cells stimulated with IL-36β” value [1] of the same binder?
**A.** 0.0184 µg/mL

**Q.** And the “IC50 of GM-CSF release, NCI/ADR-RES cells stimulated with IL-36γ” value [1]?
**A.** 0.0179 µg/mL

**Q.** And the “IC50 of IL-6 release, NCI/ADR-RES cells stimulated with IL-36α” value [1]?
**A.** 0.0124 µg/mL

**Q.** What about the “IC50 of IL-6 release, NCI/ADR-RES cells stimulated with IL-36β” value [1] of the same binder?
**A.** 0.0223 µg/mL

**Q.** What about the “IC50 of IL-6 release, NCI/ADR-RES cells stimulated with IL-36γ” value [1] of the same binder?
**A.** 0.0121 µg/mL

**Q.** And the “IC50 of IL-8 release, NCI/ADR-RES cells stimulated with IL-36α” value [1]?
**A.** 0.0398 µg/mL

**Q.** What about the “IC50 of IL-8 release, NCI/ADR-RES cells stimulated with IL-36β” value [1] of the same binder?
**A.** 0.0221 µg/mL

**Q.** What about the “IC50 of IL-8 release, NCI/ADR-RES cells stimulated with IL-36γ” value [1] of the same binder?
**A.** 0.018 µg/mL

**Q.** What about the “IC50 of pNF-κB, NCI/ADR-RES cells stimulated with IL-36β” value [1] of the same binder?
**A.** 105 ng/mL

**Q.** What about the Kd [11] of the same binder?
**A.** 0.0148 nM

**Q.** What about the koff [11] of the same binder?
**A.** 1.34e-05 s⁻¹

**Q.** And the kon [11]?
**A.** 904000 M⁻¹ s⁻¹

B3: humanized anti-IL-36R antibody 900534 (antibody, V domains shown)
VH: QVQLVQSGAEVKKPGASVKVSCKASGYTFTSSWMHWAKQAPGQGLEWIGEIHPNSAKTNYNQKFQGRVTMTRDTSISTAYMELSRLRSDDTAVYYCARVDYGKPWFAYWGQGTLVTVSS
VL: QIVLTQSPGTLSLSPGERATLSCRASSSVSSSYLHWYQQKPGQAPRLLIYSTSSRATGIPDRFSGSGSGTDFTLTISRLEPEDFATYYCQQFQSSPLTFGQGTKLEIK
notes: as for B1
**Q.** Which results are given for B3?
**A.** IC50 of GM-CSF release, NCI/ADR-RES cells stimulated with IL-36α [1]: 0.0202 µg/mL; IC50 of GM-CSF release, NCI/ADR-RES cells stimulated with IL-36β [1]: 0.0186 µg/mL; IC50 of GM-CSF release, NCI/ADR-RES cells stimulated with IL-36γ [1]: 0.021 µg/mL; IC50 of IL-6 release, NCI/ADR-RES cells stimulated with IL-36α [1]: 0.0216 µg/mL; IC50 of IL-6 release, NCI/ADR-RES cells stimulated with IL-36β [1]: 0.0168 µg/mL; IC50 of IL-6 release, NCI/ADR-RES cells stimulated with IL-36γ [1]: 0.0176 µg/mL; IC50 of IL-8 release, NCI/ADR-RES cells stimulated with IL-36α [1]: 0.0304 µg/mL; IC50 of IL-8 release, NCI/ADR-RES cells stimulated with IL-36β [1]: 0.022 µg/mL; IC50 of IL-8 release, NCI/ADR-RES cells stimulated with IL-36γ [1]: 0.018 µg/mL; IC50 of pNF-κB, NCI/ADR-RES cells stimulated with IL-36β [1]: 64.9 ng/mL; Kd [11]: 0.0579 nM; koff [11]: 5.1e-05 s⁻¹; kon [11]: 881000 M⁻¹ s⁻¹
